Laboratory results as given in the RNAGym collection of RNA variant scans (doi:10.7554/elife.90254).

B1: LINE1-full (parent)
chain: UACGUAGGUGGUUUUCCCCUGAUAGUGCUAAGGGGGCCUGGAAGUUUGGACUGGGCAGAGCUCAACACAGCGUGGCAAAGUGGCUGUGGCUAGACUGCCUCUCUGGAUUCCUCGUCACUCAGCAGGGCAUCUCUGAGAGAAAUGCC

Variants of: B1
Experiment: self-cleavage, relative activity (ratio to wild type); higher = more cleavage; in vitro, sequencing; the parent is a self-cleaving ribozyme

| Variant | self-cleavage |
| --- | --- |
| UACGUAGGUGGUUUUCCCCUGAUAGUGCUAAGGGGGCCUGGAAGUUUGGACUGGGCAGAGCUCAACACAGCGAGGCAAAGUGGCUGUGGCUAGACUGCCUCUCUGGAUUCCUCGUCACUCAGCAGGGCAUCUCUGAGAGGAAUGCC [U73A A140G] | 1.69 |
| UACGUAGGUGGUUUCCCCCUGAUAGUGCAAAGGGGGCCUGGAAGUUUGGACUGGGCAGAGCUCAACACAGCGUGGCAAAGUGGCUGUGGCUAGACUGCCUCUCUGGAUUCCUCGUCACUCAGCAGGGCAUCUCUGAGAGAAAUGCC [U15C U29A] | 1.27 |
| UACGUAGGUGGUUUUCCCCUGAUAGCGCUAAGGGGGCCUGGAAGUUAGGACUGGGCAGAGCUCAACACAGCGUGGCAAAGUGGCUGUGGCUAGACUGCCUCUCUGGAUUCCUCGUCACUCAGCAGGGCAUCUCUGAGAGAAAUGCC [U26C U47A] | 1.16 |
| CACGUAGGUGGUUUUCCCCUGAUAGUGCUAAGGGGGCCUGGAAGUUUGGACUGGGCAGAGCUCAACACAGCGUGGCAAAGUGGCUGUGGAUAGACUGCCUCUCUGGAUUCCUCGUCACUCAGCAGGGCAUCUCUGAGAGAAAUGCC [U1C C90A] | 0 |
| UACGUAGGUGGUUUUCCCCUGAUAGUGCUAAGGGGGCCUGGAAGCUUGGACUGGGCAGAGCUCAACACAGCGUGGCAAAGUGGCUGUGGCUAGACUGCCUCUCUGGAUUCCUCGUCACUCAGCAGUGCAUCUCUGAGAGAAAUGCC [U45C G126U] | 1.34 |
| UACGUAGGUGGUUUUCCCCUGAUAGUGCUAAGGGGGCCUGGAAGUUUGGACUGGGCAGUGCUCAACACAGCGUGGCAAAGUGGCUGUGGCUAGACUGCCUCUCUGGAUUCCUCGUCACUCAGCAGGGCAUCUCGGAGAGAAAUGCC [A59U U134G] | 1.26 |
| UACGUAGGUGGUUUUCCCCUGAUAGUGCUAAGGGGGCCUGGAAGUUUGGACUGGGCAGAGCUCAGCACAGCGUGGCAAAGUGGCUGUGGCUAGACUGCCUCUCUGGAUUCCUCGUCACUCAGCGGGGCAUCUCUGAGAGAAAUGCC [A65G A124G] | 0.07 |
| UACGUAGGUGGUUUUCCCCUGAUAGUGCUAAGGGGGCCUGGAAGUUUGGACUGGGCAGAGCUCAACACAGCGUGGCAAAGUGGCUGUGGCUAGCCUGCCUCUCUGGAUUCCUCGUCACUCAGCAGGGCAUCUCUGGGAGAAAUGCC [A94C A136G] | 0.07 |
| UACGUAGGUGGUUCUCCCCUGAUAGUGCUAAGGGGGCCUGGAAGUUUGGACUGGGCAGAGCUCAACACAGCGUGGCAAAGUGGCUGUGGCUAGACUGCCUCUCUGGAUUCCUCGUCACUCGGCAGGGCAUCUCUGAGAGAAAUGCC [U14C A121G] | 1.3 |
| UACGUAGGAGGUUUUCCCCUGAUAGUGCUAAGGGGGCCUGGCAGUUUGGACUGGGCAGAGCUCAACACAGCGUGGCAAAGUGGCUGUGGCUAGACUGCCUCUCUGGAUUCCUCGUCACUCAGCAGGGCAUCUCUGAGAGAAAUGCC [U9A A42C] | 0.56 |
| UACGUAGGUGGUUUUCCCCUGAUAGUGCUAAGGGGGCCUGGAAGUUUGGACUGGGCAGGGCUCAACACAGCGUGGCAAAGUGGCUGUGGCUAGACUGCCUCUCUGGAUUCCUCGUCACUCAGCAGGGCAUCUCUGAGGGAAAUGCC [A59G A138G] | 0.1 |
| UACGUAGGUGGUUUUCCCUUGAUAGUGCUAAGGGGGCCUGGAAGUUUGGACUGGGCAGAGCUCGACACAGCGUGGCAAAGUGGCUGUGGCUAGACUGCCUCUCUGGAUUCCUCGUCACUCAGCAGGGCAUCUCUGAGAGAAAUGCC [C19U A64G] | 0.25 |
| UACGUAGGUGGUUUUCCCCUGAUAGUGCUAAGGGGGCCUGGAAGUUUGGACUGGGCAGAGCUCAACACAGCGUGGCAAAGUGGCUGUGGCUAGACUGCCUCUCUGGAUUCCUCGUCACUCAGCAGGGUAUCUCUGAGGGAAAUGCC [C128U A138G] | 1.44 |
| UACGUAGGUGGUUUUCCCCUGAUAGUGCUAAGGGGGCCUGGAAGUUUGGACUGGGCAGAGCUCAACACAGCGUGGCAAAGAGGCUGUGGCUAGACUGCCUCUCUGGAUUCCUCGUCACUAAGCAGGGCAUCUCUGAGAGAAAUGCC [U81A C120A] | 2.51 |
| UACGUAUGCGGUUUUCCCCUGAUAGUGCUAAGGGGGCCUGGAAGUUUGGACUGGGCAGAGCUCAACACAGCGUGGCAAAGUGGCUGUGGCUAGACUGCCUCUCUGGAUUCCUCGUCACUCAGCAGGGCAUCUCUGAGAGAAAUGCC [G7U U9C] | 1.56 |
| UACGUGGGUGGUUUUCCCCGGAUAGUGCUAAGGGGGCCUGGAAGUUUGGACUGGGCAGAGCUCAACACAGCGUGGCAAAGUGGCUGUGGCUAGACUGCCUCUCUGGAUUCCUCGUCACUCAGCAGGGCAUCUCUGAGAGAAAUGCC [A6G U20G] | 1.34 |
| UACGUAGGUGGUUUUCCCCUGAUAGUGCUAAGGGGGCCUAGAAGUUUGGACUGGGCAGUGCUCAACACAGCGUGGCAAAGUGGCUGUGGCUAGACUGCCUCUCUGGAUUCCUCGUCACUCAGCAGGGCAUCUCUGAGAGAAAUGCC [G40A A59U] | 0.54 |
| UACGUAGGUGGUUUUCCCCUGAUAGUGCUAAGGGGGCCUGGAAGUUUGGACUGGGCAGAGCUCAACACAGCGUGGCAAAGUGGCUGUGGCUAGACUGCCUCUCUGGAUUCCUCGUCACACAGCAGGGCAUCUCUGAGAGAAGUGCC [U119A A142G] | 1.48 |
| UACGUAGGUGGUUUUCCCCUGAUAGUGCUAAGGGGGCCUGGAAGGUUGGACUGGGCAGAGCUCAACACAGCGUGGCAAAGUGGCUGUGGCUAGACUGCCUCUCUGGAUUCCUCGUCACUCAGCAGGGCAUCUCUGGGAGAAAUGCC [U45G A136G] | 0.94 |
| UACGUAGGUGGUUUUCCCCUGAUAGUGCUAAGGGGGCCUGGAAGUUUGGACUGGGCAGAGCUCAACACAGCGUGGCAAAGUGACUGUGGCUAGACUGCCUCUCCGGAUUCCUCGUCACUCAGCAGGGCAUCUCUGAGAGAAAUGCC [G83A U104C] | 0.95 |
